Data from FireProtDB.

B1: Colicin-E1, P02978 (parent)
chain: METAVAYYKDGVPYDDKGQVIITLLNGTPDGSGSGGGGGKGGSKSESSAAIHATAKWSTAQLKKTQAEQAARAKAAAEAQAKAKANRDALTQRLKDIVNEALRHNASRTPSATELAHANNAAMQAEDERLRLAKAEEKARKEAEAAEKAFQEAEQRRKEIEREKAETERQLKLAEAEEKRLAALSEEAKAVEIAQKKLSAAQSEVVKMDGEIKTLNSRLSSSIHARDAEMKTLAGKRNELAQASAKYKELDELVKKLSPRANDPLQNRPFFEATRRRVGAGKIREEKQKQVTASETRINRINADITQIQKAISQVSNNRNAGIARVHEAEENLKKAQNNLLNSQIKDAVDATVSFYQTLTEKYGEKYSKMAQELADKSKGKKIGNVNEALAAFEKYKDVLNKKFSKADRDAIFNALASVKYDDWAKHLDQFAKYLKITGHVSFGYDVVSDILKIKDTGDWKPLFLTLEKKAADAGVSYVVALLFSLLAGTTLGIWGIAIVTGILCSYIDKNKLNTINEVLGI

Variants of: B1
Settings: Escherichia coli; pH 6; 22 °C; Urea; Fluorescence; dimethylglutaric acid 10 mM; NaCl 100 mM; reversible: yes; structure 2I88; whole UniProt chain shown

Variant	denaturant midpoint (higher = more stable)
METAVAYYKDGVPYDDKGQVIITLLNGTPDGSGSGGGGGKGGSKSESSAAIHATAKWSTAQLKKTQAEQAARAKAAAEAQAKAKANRDALTQRLKDIVNEALRHNASRTPSATELAHANNAAMQAEDERLRLAKAEEKARKEAEAAEKAFQEAEQRRKEIEREKAETERQLKLAEAEEKRLAALSEEAKAVEIAQKKLSAAQSEVVKMDGEIKTLNSRLSSSIHARDAEMKTLAGKRNELAQASAKYKELDELVKKLSPRANDPLQNRPFFEATRRRVGAGKIREEKQKQVTASETRINRINADITQIQKAISQVSNNRNAGIARVHEAEENLKKAQNNLLNSQIKDAVDATVSFYQTLTEKYGEKYSKMAQELADKSKGKKIGNVNEALAAFEKYKDVLNKKFSKADRDAIFNALASVKYDDFAKHLDQFAKYLKITGHVSFGYDVVSDILKIKDTGDFKPLFLTLEKKAADAGVSYVVALLFSLLAGTTLGIWGIAIVTGILCSYIDKNKLNTINEVLGI [W424F W460F]	5.3 M
METAVAYYKDGVPYDDKGQVIITLLNGTPDGSGSGGGGGKGGSKSESSAAIHATAKWSTAQLKKTQAEQAARAKAAAEAQAKAKANRDALTQRLKDIVNEALRHNASRTPSATELAHANNAAMQAEDERLRLAKAEEKARKEAEAAEKAFQEAEQRRKEIEREKAETERQLKLAEAEEKRLAALSEEAKAVEIAQKKLSAAQSEVVKMDGEIKTLNSRLSSSIHARDAEMKTLAGKRNELAQASAKYKELDELVKKLSPRANDPLQNRPFFEATRRRVGAGKIREEKQKQVTASETRINRINADITQIQKAISQVSNNRNAGIARVHEAEENLKKAQNNLLNSQIKDAVDATVSFYQTLTEKYGEKYSKMAQELADKSKGKKIGNVNEALAAFEKYKDVLNKKFSKADRDAIFNALASVKYDDWAKHLDQFAKYLKITGHVSFGYDVVSDILKIKDTGDFKPLFLTLEKKAADAGVSYVVALLFSLLAGTTLGIFGIAIVTGILCSYIDKNKLNTINEVLGI [W460F W495F]	6.1 M
METAVAYYKDGVPYDDKGQVIITLLNGTPDGSGSGGGGGKGGSKSESSAAIHATAKWSTAQLKKTQAEQAARAKAAAEAQAKAKANRDALTQRLKDIVNEALRHNASRTPSATELAHANNAAMQAEDERLRLAKAEEKARKEAEAAEKAFQEAEQRRKEIEREKAETERQLKLAEAEEKRLAALSEEAKAVEIAQKKLSAAQSEVVKMDGEIKTLNSRLSSSIHARDAEMKTLAGKRNELAQASAKYKELDELVKKLSPRANDPLQNRPFFEATRRRVGAGKIREEKQKQVTASETRINRINADITQIQKAISQVSNNRNAGIARVHEAEENLKKAQNNLLNSQIKDAVDATVSFYQTLTEKYGEKYSKMAQELADKSKGKKIGNVNEALAAFEKYKDVLNKKFSKADRDAIWNALASVKYDDWAKHLDQFAKYLKITGHVSFGYDVVSDILKIKDTGDWKPLFLTLEKKAADAGVSYVVALLFSLLAGTTLGIWGIAIVTGILCSYIDKNKLNTINEVLGI [F413W]	5.7 M
METAVAYYKDGVPYDDKGQVIITLLNGTPDGSGSGGGGGKGGSKSESSAAIHATAKWSTAQLKKTQAEQAARAKAAAEAQAKAKANRDALTQRLKDIVNEALRHNASRTPSATELAHANNAAMQAEDERLRLAKAEEKARKEAEAAEKAFQEAEQRRKEIEREKAETERQLKLAEAEEKRLAALSEEAKAVEIAQKKLSAAQSEVVKMDGEIKTLNSRLSSSIHARDAEMKTLAGKRNELAQASAKYKELDELVKKLSPRANDPLQNRPFFEATRRRVGAGKIREEKQKQVTASETRINRINADITQIQKAISQVSNNRNAGIARVHEAEENLKKAQNNLLNSQIKDAVDATVSFYQTLTEKYGEKYSKMAQELADKSKGKKIGNVNEALAAFEKYKDVLNKKFSKADRDAIFNALASVKYDDWAKHLDQFAKYLKITGHVSFGYDVVSDILKIKDTGDWKPLFLTLEKKAADAGVSYVVALLFSLLAGTTLGIWGIAIVTGILCSWIDKNKLNTINEVLGI [Y507W]	5.7 M
METAVAYYKDGVPYDDKGQVIITLLNGTPDGSGSGGGGGKGGSKSESSAAIHATAKWSTAQLKKTQAEQAARAKAAAEAQAKAKANRDALTQRLKDIVNEALRHNASRTPSATELAHANNAAMQAEDERLRLAKAEEKARKEAEAAEKAFQEAEQRRKEIEREKAETERQLKLAEAEEKRLAALSEEAKAVEIAQKKLSAAQSEVVKMDGEIKTLNSRLSSSIHARDAEMKTLAGKRNELAQASAKYKELDELVKKLSPRANDPLQNRPFFEATRRRVGAGKIREEKQKQVTASETRINRINADITQIQKAISQVSNNRNAGIARVHEAEENLKKAQNNLLNSQIKDAVDATVSFYQTLTEKYGEKWSKMAQELADKSKGKKIGNVNEALAAFEKYKDVLNKKFSKADRDAIFNALASVKYDDWAKHLDQFAKYLKITGHVSFGYDVVSDILKIKDTGDWKPLFLTLEKKAADAGVSYVVALLFSLLAGTTLGIWGIAIVTGILCSYIDKNKLNTINEVLGI [Y367W]	4.9 M
METAVAYYKDGVPYDDKGQVIITLLNGTPDGSGSGGGGGKGGSKSESSAAIHATAKWSTAQLKKTQAEQAARAKAAAEAQAKAKANRDALTQRLKDIVNEALRHNASRTPSATELAHANNAAMQAEDERLRLAKAEEKARKEAEAAEKAFQEAEQRRKEIEREKAETERQLKLAEAEEKRLAALSEEAKAVEIAQKKLSAAQSEVVKMDGEIKTLNSRLSSSIHARDAEMKTLAGKRNELAQASAKYKELDELVKKLSPRANDPLQNRPFFEATRRRVGAGKIREEKQKQVTASETRINRINADITQIQKAISQVSNNRNAGIARVHEAEENLKKAQNNLLNSQIKDAVDATVSTYQTLTEKYGEKYSKMAQELADKSKGKKIGNVNEALAAFEKYKDVLNKKFSKADRDAIFNALASVKYDDWAKHLDQFAKYLKITGHVSFGYDVVSDILKIKDTGDWKPLFLTLEKKAADAGVSYVVALLFSLLAGTTLGIWGIAIVTGILCSYIDKNKLNTINEVLGI [F355T]	4.9 M
